Laboratory results published in patent US20260265379A1.

Target: BTN3A expressed at the cell surface (human), O00481
Assay: cell-based or functional assay

Sequence of BTN3A expressed at the cell surface (human), O00481 (O00481 30-513): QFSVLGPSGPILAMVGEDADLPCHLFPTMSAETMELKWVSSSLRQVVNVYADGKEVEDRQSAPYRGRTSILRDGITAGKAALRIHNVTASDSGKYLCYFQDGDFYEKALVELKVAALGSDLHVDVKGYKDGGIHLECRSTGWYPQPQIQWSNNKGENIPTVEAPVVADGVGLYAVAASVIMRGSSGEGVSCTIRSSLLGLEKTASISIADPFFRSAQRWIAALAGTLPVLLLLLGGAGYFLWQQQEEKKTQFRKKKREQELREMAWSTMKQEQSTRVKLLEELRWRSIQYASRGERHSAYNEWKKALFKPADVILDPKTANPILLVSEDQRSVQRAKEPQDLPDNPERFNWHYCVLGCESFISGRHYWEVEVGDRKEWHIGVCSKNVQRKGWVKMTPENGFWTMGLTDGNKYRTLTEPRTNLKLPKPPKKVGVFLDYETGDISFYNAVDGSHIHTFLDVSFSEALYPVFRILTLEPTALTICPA

Jurkat-Vy9Vo2 TCR MOP activation at 0.5 nM (fold-change to medium)	Jurkat-Vy9Vo2 TCR MOP activation at 5 nM (fold-change to medium)	Binder
1.1	1	bsAb020 (bispecific antibody) heavy: DIQMTQSPSSLSASVGDRVTITCHASQNINVWLSWYQQKPGKAPKLLIYKASNLHTGVPSRFTGSGSGTDFTFTISSLQPEDIATYYCQQGQTYPYTFGQGTKLEIKGGGGSGGGGSGGGGSGGGGSQVQLVQSGAEVKKPGASVKLSCKASGYIFTRYYMYWVKQRPGQGLEWIGEINPNNGGTKFNEKFKNRATLTVDKSISTAYMELSRLRSDDTAVYYCSREDDYDGTPFAMDYWGQGTLVTVSSGGGGSGGGGSGGGGSGGGGSEVQLVESGGGLVQPGGSLRLSCAASGFTFSRYWMSWVRQAPGKGLEWVANIKQDGSEKYYVDSVKGRFTISRDNAKNSLYLQMNSLRAEDTAVYYCAREGGWFGELAFDYWGQGTLVTVSSASTKGPSVFPLAPSSKSTSGGTAALGCLVKDYFPEPVTVSWNSGALTSGVHTFPAVLQSSGLYSLSSVVTVPSSSLGTQTYICNVNHKPSNTKVDKRVEPKSCDKTHTCPPCPAPEFEGGPSVFLFPPKPKDTLMISRTPEVTCVVVDVSHEDPEVKFNWYVDGVEVHNAKTKPREEQYNSTYRVVSVLTVLHQDWLNGKEYKCKVSNKALPASIEKTISKAKGQPREPQVYTLPPSREEMTKNQVSLTCLVKGFYPSDIAVEWESNGQPENNYKTTPPVLDSDGSFFLYSKLTVDKSRWQQGNVFSCSVMHEALHNHYTQKSLSLSPG light: EIVLTQSPGTLSLSPGERATLSCRASQRVSSSYLAWYQQKPGQAPRLLIYDASSRATGIPDRFSGSGSGTDFTLTISRLEPEDFAVYYCQQYGSLPWTFGQGTKVEIKRTVAAPSVFIFPPSDEQLKSGTASVVCLLNNFYPREAKVQWKVDNALQSGNSQESVTEQDSKDSTYSLSSTLTLSKADYEKHKVYACEVTHQGLSSPVTKSFNRGEC
1	1	bsAb024 (bispecific antibody) heavy: QVQLVQSGAEVKKPGASVKLSCKASGYIFTRYYMYWVKQRPGQGLEWIGEINPNNGGTKFNEKFKNRATLTVDKSISTAYMELSRLRSDDTAVYYCSREDDYDGTPFAMDYWGQGTLVTVSSGGGGSGGGGSGGGGSGGGGSDIQMTQSPSSLSASVGDRVTITCHASQNINVWLSWYQQKPGKAPKLLIYKASNLHTGVPSRFTGSGSGTDFTFTISSLQPEDIATYYCQQGQTYPYTFGQGTKLEIKGGGGSGGGGSGGGGSGGGGSEVQLVESGGGLVQPGGSLRLSCAASGFTFSRYWMSWVRQAPGKGLEWVANIKQDGSEKYYVDSVKGRFTISRDNAKNSLYLQMNSLRAEDTAVYYCAREGGWFGELAFDYWGQGTLVTVSSASTKGPSVFPLAPSSKSTSGGTAALGCLVKDYFPEPVTVSWNSGALTSGVHTFPAVLQSSGLYSLSSVVTVPSSSLGTQTYICNVNHKPSNTKVDKRVEPKSCDKTHTCPPCPAPEFEGGPSVFLFPPKPKDTLMISRTPEVTCVVVDVSHEDPEVKFNWYVDGVEVHNAKTKPREEQYNSTYRVVSVLTVLHQDWLNGKEYKCKVSNKALPASIEKTISKAKGQPREPQVYTLPPSREEMTKNQVSLTCLVKGFYPSDIAVEWESNGQPENNYKTTPPVLDSDGSFFLYSKLTVDKSRWQQGNVFSCSVMHEALHNHYTQKSLSLSPG light: EIVLTQSPGTLSLSPGERATLSCRASQRVSSSYLAWYQQKPGQAPRLLIYDASSRATGIPDRFSGSGSGTDFTLTISRLEPEDFAVYYCQQYGSLPWTFGQGTKVEIKRTVAAPSVFIFPPSDEQLKSGTASVVCLLNNFYPREAKVQWKVDNALQSGNSQESVTEQDSKDSTYSLSSTLTLSKADYEKHKVYACEVTHQGLSSPVTKSFNRGEC
